In paper PMC2932715:

Experiments:
[1] = biological target: hemagglutinin (HA) ectodomain from A/New York/107/2003 (H7N2) (influenza A virus A/New York/107/2003 (H7N2)); experiment: crystal structure
[2] = biological target: hemagglutinin (HA) ectodomain from A/New York/107/2003 (H7N2) (influenza A virus A/New York/107/2003 (H7N2)); experiment: SEC

Work on “hemagglutinin (HA) ectodomain from A/New York/107/2003 (H7N2) (natural protein)” yielded a stoichiometry N [1] of 3 and a stoichiometry N [2] of 3.
